For 1 substance, stoichiometry N results are on record in paper PMC2988976.

As usually defined, the stoichiometry N is the number of molecules, sites or subunits per partner or assembly.

For this experiment, the target named is Rev_(70-Dimer) (HIV) (UniProt P04618). The experiment in a line: SEC-MALS. (In general: SEC sorts molecules by how far they enter the pores of the column.)

Regarding “Rev_(70-Dimer) (from UniProt P04618 1-70) (domain or fragment)”, the stoichiometry N was determined as 2.
